According to paper PMC10134273 (Cancer Medicine, 2023):
Values joined by “and” are separate entries in the source; they are usually repeats but may differ in a detail not shown here. Equal values may be shown once. Read-outs that look alike come from different tables or passages of the source.

Description: Secondary endpoints included PK parameters (e.g., maximum observed concentration [C max] and area under the concentration‐time curve [AUC]). Secondary endpoints included objective response rate (ORR), disease control rate (DCR), and duration of response (DOR) as assessed by investigator per RECIST v1.1. Tumor responses were assessed according to RECIST v1.1; computerized tomography scanning or magnetic resonance imaging was performed every 6 weeks in the first 48 weeks, and every 12 weeks thereafter. Secondary endpoints also included safety and tolerability (adverse events [AEs] as defined by the National Cancer Institute‐Common Terminology Criteria for Adverse Events CTCAE v5.0) and exploratory biomarkers (total bile acids, 7‐α‐hydroxy‐4‐cholesten‐3‐one [C4] and circulating FGF19). Safety follow‐up visit was performed within 30 days (±5 days) and 90 days (±7 days) after the last dose of the study treatment.
All patients who received at least one dose of the study treatment in the Phase 1 part of the study were included in the safety and efficacy analyses. Dose escalation and MTD assessment were primarily based on DLTs which occurred within the 28‐day observation period. Descriptive statistics were used for demographics, safety, and efficacy data. The number of patients who experienced DLTs (within and outside of the 28‐day DLT assessment period) was tabulated for each dose level. The sample size of patients required for dose escalation were determined based on the ‘3+3’ design and DLTs observed as the trial progressed.

[1] = EVER4010001 40 mg BID group (N=3)
[2] = EVER4010001 60 mg BID group (N=3)
[3] = EVER4010001 80 mg BID group (N=6)
[4] = EVER4010001 100 mg BID group (N=7)

pembrolizumab: humanized monoclonal immunoglobulin G4 kappa anti-PD-1 antibody [reference compound]
SAEs related to EVER4010001 or pembrolizumab (2 patients with SAEs (40 and 60 mg)): none
Any pembrolizumab related TEAEs (Any Grade, N=19): 18 (94.7%) n (%) and 18 (94.7) n (%)
pembrolizumab related TEAEs: Abdominal pain (Any Grade, N=19): 2 (10.5) n (%)
pembrolizumab related TEAEs: Anemia (Any Grade, N=19): 4 (21.1) n (%)
pembrolizumab related TEAEs: Aspartate aminotransferase increase (Any Grade, N=19): 10 [52.6%] n (%) and 10 (52.6) n (%)
pembrolizumab related TEAEs: Blood alkaline phosphatase increased (Any Grade, N=19): 4 (21.1) n (%)
pembrolizumab related TEAEs: Blood and lymphatic system disorders (Any Grade, N=19): 4 (21.1) n (%)
pembrolizumab related TEAEs: Blood bilirubin increased (Any Grade, N=19): 4 (21.1) n (%)
pembrolizumab related TEAEs: Diarrhea (Any Grade, N=19): 11 [57.9%] n (%) and 11 (57.9) n (%)
pembrolizumab related TEAEs: Endocrine disorders (Any Grade, N=19): 3 (15.8) n (%)
pembrolizumab related TEAEs: Gamma-glutamyl transferase increased (Any Grade, N=19): 2 (10.5) n (%)
pembrolizumab related TEAEs: Gastrointestinal disorders (Any Grade, N=19): 11 (57.9) n (%)
pembrolizumab related TEAEs: Hyperphosphatemia (Any Grade, N=19): 3 (15.8) n (%)
pembrolizumab related TEAEs: Hypoalbuminemia (Any Grade, N=19): 3 (15.8) n (%)
pembrolizumab related TEAEs: Hypothyroidism (Any Grade, N=19): 3 (15.8) n (%)
pembrolizumab related TEAEs: Investigations (Any Grade, N=19): 14 (73.7) n (%)
pembrolizumab related TEAEs: Metabolism and nutrition disorders (Any Grade, N=19): 6 (31.6) n (%)
pembrolizumab related TEAEs: Proteinuria (Any Grade, N=19): 4 (21.1) n (%)
pembrolizumab related TEAEs: Renal and urinary disorder (Any Grade, N=19): 4 (21.1) n (%)
pembrolizumab related TEAEs: Thyroiditis (Any Grade, N=19): 2 (10.5) n (%)
TEAEs resulting in temporary interruption of pembrolizumab [1]: 1 (33.3) n (%)
Temporary interruption of pembrolizumab: Blood bilirubin increased [1]: 0 n (%)
Temporary interruption of pembrolizumab: Endocrine disorders [1]: 1 (33.3) n (%)
Temporary interruption of pembrolizumab: Investigations [1]: 0 n (%)
Temporary interruption of pembrolizumab: Thyroiditis [1]: 1 (33.3) n (%)
TEAEs resulting in temporary interruption of pembrolizumab [2]: 0 n (%)
Temporary interruption of pembrolizumab: Blood bilirubin increased [2]: 0 n (%)
Temporary interruption of pembrolizumab: Endocrine disorders [2]: 0 n (%)
Temporary interruption of pembrolizumab: Investigations [2]: 0 n (%)
Temporary interruption of pembrolizumab: Thyroiditis [2]: 0 n (%)
TEAEs resulting in temporary interruption of pembrolizumab [3]: 1 (16.7) n (%)
Temporary interruption of pembrolizumab: Blood bilirubin increased [3]: 1 (16.7) n (%)
Temporary interruption of pembrolizumab: Endocrine disorders [3]: 0 n (%)
Temporary interruption of pembrolizumab: Investigations [3]: 1 (16.7) n (%)
Temporary interruption of pembrolizumab: Thyroiditis [3]: 0 n (%)
TEAEs resulting in temporary interruption of pembrolizumab [4]: 1 (14.3) n (%)
Temporary interruption of pembrolizumab: Blood bilirubin increased [4]: 0 n (%)
Temporary interruption of pembrolizumab: Endocrine disorders [4]: 0 n (%)
Temporary interruption of pembrolizumab: Investigations [4]: 1 (14.3) n (%)
Temporary interruption of pembrolizumab: Thyroiditis [4]: 0 n (%)
pembrolizumab related TEAEs: Abdominal pain (Grade ≥3, N=19): 0 n (%)
pembrolizumab related TEAEs: Anemia (Grade ≥3, N=19): 0 n (%)
pembrolizumab related TEAEs: Aspartate aminotransferase increase (Grade ≥3, N=19): 2 (10.5) n (%)
pembrolizumab related TEAEs: Blood alkaline phosphatase increased (Grade ≥3, N=19): 0 n (%)
pembrolizumab related TEAEs: Blood and lymphatic system disorders (Grade ≥3, N=19): 0 n (%)
pembrolizumab related TEAEs: Blood bilirubin increased (Grade ≥3, N=19): 0 n (%)
pembrolizumab related TEAEs: Diarrhea (Grade ≥3, N=19): 1 (5.3) n (%)
pembrolizumab related TEAEs: Endocrine disorders (Grade ≥3, N=19): 0 n (%)
pembrolizumab related TEAEs: Gamma-glutamyl transferase increased (Grade ≥3, N=19): 0 n (%)
pembrolizumab related TEAEs: Gastrointestinal disorders (Grade ≥3, N=19): 1 (5.3) n (%)
pembrolizumab related TEAEs: Hyperphosphatemia (Grade ≥3, N=19): 0 n (%)
pembrolizumab related TEAEs: Hypoalbuminemia (Grade ≥3, N=19): 0 n (%)
pembrolizumab related TEAEs: Hypothyroidism (Grade ≥3, N=19): 0 n (%)
pembrolizumab related TEAEs: Investigations (Grade ≥3, N=19): 2 (10.5) n (%)
pembrolizumab related TEAEs: Metabolism and nutrition disorders (Grade ≥3, N=19): 0 n (%)
pembrolizumab related TEAEs: Proteinuria (Grade ≥3, N=19): 0 n (%)
pembrolizumab related TEAEs: Renal and urinary disorder (Grade ≥3, N=19): 0 n (%)
pembrolizumab related TEAEs: Thyroiditis (Grade ≥3, N=19): 0 n (%)
TEAEs resulting in temporary interruption of pembrolizumab (Total (N=19)): 3 [15.8%] n (%) and 3 (15.8) n (%)
Temporary interruption of pembrolizumab: Blood bilirubin increased (Total (N=19)): 1 (5.3%) n (%) and 1 (5.3) n (%)
Temporary interruption of pembrolizumab: Endocrine disorders (Total (N=19)): 1 (5.3) n (%)
Temporary interruption of pembrolizumab: Investigations (Total (N=19)): 2 (10.5) n (%)
Temporary interruption of pembrolizumab: Thyroiditis (Total (N=19)): 1 (5.3%) n (%) and 1 (5.3) n (%)
